The source of these data is FireProtDB (doi:10.1002/pro.5560061014).

The chains are these.
B1: Barstar, P11540 (parent)
chain: MKKAVINGEQIRSISDLHQTLKKELALPEYYGENLDALWDCLTGWVEYPLVLEWRQFEQSKQLTENGAESVLQVFREAKAEGCDITIILS

In one data set the parent is B1. The settings on record: Bacillus amyloliquefaciens; pH 7.4; 25 °C; Thermal; DSC; Sodium phosphate 50 mM; reversible: yes; structure 1BTA; whole UniProt chain shown.
In the case of MKKAVINGEQIRSISDLHQTLKKELALPEYYGENLDALWDCLTGWVEYPLVLEWRQFEQSKQLTENGAESVLQVFREAKAEGADITIILS [C83A], the “heat capacity change of unfolding” value was 0.86 kcal/mol/K and the unfolding free energy came to 6.1 kcal/mol.

The data set is the same for the next values; noted with them: Bacillus amyloliquefaciens; pH 7.4; Thermal; DSC; Sodium phosphate 50 mM; reversible: yes; structure 1BTA; whole UniProt chain shown.
As for MKKAVINGEQIRSISDLHQTLKKELALPEYYGENLDALWDCLTGWVEYPLVLEWRQFEQSKQLTENGAESVLQVFREAKAEGADITIILS [C83A], the midpoint of thermal melting (Tm) is 71.4 °C; the “change of melting temperature, mutant - wild type (higher = more stable)” value is -1.4 °C; the “heat capacity change of unfolding” value is 0.86 kcal/mol/K; the “unfolding enthalpy (calorimetric)” value was 66 kcal/mol.

In general, Tm refers to the temperature at the midpoint of the melting transition.
